Experimental findings from article PMC4493018, “A Unique Human Norovirus Lineage with a Distinct HBGA Binding Interface” (PLoS Pathogens, 2015) are described below.

The target of one assay is T1, OIF P particle (Norovirus NLV/IF1998/2003/Iraq, UniProt Q6B7R3).
T1 construct: P domain self-assembled to P particles of 830 kDa; GST fusion from E. coli BL21, GST cut off with thrombin
Put plainly: ELISA, oligosaccharide coated on plate. The conditions noted are these: P particles 10 μg/ml, coated synthetic oligosaccharide 2 μg/ml (polyvalent PAA conjugate in the blocking assay), 37 °C. It is filed as binding. (In general: In an ELISA, binding on a coated surface is turned into a signal by an enzyme label.)

The target of assay [1] is T2, OIF P domain (GII.21 OIF virus P dimer) (Norovirus NLV/IF1998/2003/Iraq, UniProt Q6B7R3).
T2 construct: P domain, residues 220-527, pGEX-6P-1 GST fusion in E. coli BL21(DE3), GST cut off with PreScission protease; dimer
Put plainly: X-ray co-crystal structure, […] Å. The conditions noted are these: co-crystallised without glycerol; 10 mM ligand; new HBGA site of B-, N- and T-loops; beta-Gal is major binding saccharide.

The target in assay [2] is P domain of the GII.21 OIF (Operation Iraqi Freedom) norovirus capsid protein VP1 (human norovirus GII.21 OIF virus). Put plainly: crystal structure.
A further assay has as its target Lea oligosaccharide. Put plainly: plate binding assay with coated oligosaccharides (OD450 read-out). The conditions noted are these: P particles 10 μg/ml; oligosaccharides for plate coating at 2 μg/ml; parent: est. 0.85; read off a plot.
The target of assay [3] is A antigen oligosaccharide. Described as above. The following applies: P particles 10 μg/ml; oligosaccharides for plate coating at 2 μg/ml; parent: est. 0.04; read off a plot.

On to `CC(=O)N[C@H]1C(O)O[C@H](CO)[C@@H](O[C@@H]2O[C@@H](C)[C@@H](O)[C@@H](O)[C@@H]2O)[C@@H]1O[C@@H]1O[C@H](CO)[C@H](O)[C@H](O)[C@H]1O` (stereo partly drawn) [Le^a trisaccharide, β-Gal-(1,3)-(α-Fuc-(1,4))- GlcNAc], for which the “ELISA, oligosaccharide coated on plate” value on OIF P particle was “wild type P particle of OIF virus that binds strongly to Le^a oligosaccharide”. Besides, the “X-ray co-crystal structure, 2.00 Å” value in assay [1] is listed as “we co-crystallized the OIF P domain with Le^a trisaccharide”.

The term stoichiometry N denotes the number of molecules, sites or subunits per partner or assembly. With “P domain of the GII.21 OIF (Operation Iraqi Freedom) norovirus capsid protein VP1 (domain or fragment)”, the stoichiometry N in assay [2] amounted to 2. With wild type P particle of OIF virus D294A, the response with Lea oligosaccharide was found to be 0.32 OD450; in assay [3] it was 0.07 OD450. Regarding wild type P particle of OIF virus E358A, the response in assay [3] worked out at 0.08 OD450.
